Data reported in paper PMC10352241, “Structure and assembly of the NOT10:11 module of the CCR4-NOT complex” (Communications Biology, 2023).

B1: GST-Hs NOT11-C (residues D257–D498) (domain or fragment)
chain: not shown
notes: human NOT11 (CNOT11), residues D257–D498; The GST tag is HRV3C-cleavable (plasmid pnEA-pG); also called GST-NOT11-C; NOT11 construct lacking the NOT11N domain; source: E. coli BL21 (DE3) Star, purified (glutathione agarose, HiTrap Q, Superdex 200); not shown: GST, N-terminal, kept
B2: Hs NOT1-N (residues D4–N682) (domain or fragment, human, UniProt A5YKK6 4-682, looked up)
chain: DSLSLALSQISYLVDNLTKKNYRASQQEIQHIVNRHGPEADRHLLRCLFSHVDFSGDGKSSGKDFHQTQFLIQECALLITKPNFISTLSYAIDNPLHYQKSLKPAPHLFAQLSKVLKLSKVQEVIFGLALLNSSSSDLRGFAAQFIKQKLPDLLRSYIDADVSGNQEGGFQDIAIEVLHLLLSHLLFGQKGAFGVGQEQIDAFLKTLRRDFPQERCPVVLAPLLYPEKRDILMDRILPDSGGVAKTMMESSLADFMQEVGYGFCASIEECRNIIVQFGVREVTAAQVARVLGMMARTHSGLTDGIPLQSISAPGSGIWSDGKDKSDGAQAHTWNVEVLIDVLKELNPSLNFKEVTYELDHPGFQIRDSKGLHNVVYGIQRGLGMEVFPVDLIYRPWKHAEGQLSFIQHSLINPEIFCFADYPCHTVATDILKAPPEDDNREIATWKSLDLIESLLRLAEVGQYEQVKQLFSFPIKHCPDMLVLALLQINTSWHTLRHELISTLMPIFLGNHPNSAIILHYAWHGQGQSPSIRQLIMHAMAEWYMRGEQYDQAKLSRILDVAQDLKALSMLLNGTPFAFVIDLAALASRREYLKLDKWLTDKIREHGEPFIQACMTFLKRRCPSILGGLAPEKDQPKSAQLPPETLATMLACLQACAGSVSQELSETILTMVANCSNVMN
notes: human NOT1 (CNOT1), residues D4–N682; The purification of NOT1-N is not described; source: E. coli BL21 (DE3) Star, purified

What was measured:
Conditions in all cases: both partners purified
[1] = biological target: T1, MBP-Hs NOT10-C (residues T351–Q707) (human, UniProt Q9H9A5 351-707); assay: pull-down; GST pulldown with recombinant proteins; GST-NOT11 constructs as bait, MBP-tagged NOT10 constructs as prey (Fig. 3b–f; human and Drosophila)
T1 construct: human NOT10 (CNOT10), residues T351–Q707; The MBP tag is HRV3C-cleavable; no cleavage step is described; also called C-terminal portion of NOT10; source: E. coli BL21 (DE3) Star, purified (amylose resin, HiTrap Q, Superdex 200)
T1 sequence (Q9H9A5 351-707): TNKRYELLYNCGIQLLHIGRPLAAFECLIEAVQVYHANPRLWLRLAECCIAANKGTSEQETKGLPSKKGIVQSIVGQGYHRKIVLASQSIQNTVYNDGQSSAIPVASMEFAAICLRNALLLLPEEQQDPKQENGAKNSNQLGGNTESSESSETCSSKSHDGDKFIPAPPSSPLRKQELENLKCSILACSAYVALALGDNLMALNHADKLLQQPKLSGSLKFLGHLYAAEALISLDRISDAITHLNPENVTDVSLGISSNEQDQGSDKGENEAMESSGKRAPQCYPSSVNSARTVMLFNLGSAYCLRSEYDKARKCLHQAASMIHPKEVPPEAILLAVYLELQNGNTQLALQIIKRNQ

[2] = biological target: T2, MBP-Hs NOT10-L (residues D25–Q707) (human, UniProt Q9H9A5 25-707); assay: as above
T2 construct: human NOT10 (CNOT10), residues D25–Q707; The MBP tag is HRV3C-cleavable (plasmid pnYC-pM); no cleavage step is described; also called isolated NOT10; source: E. coli BL21 (DE3) Star, purified (amylose resin, HiTrap Q, Superdex 200)
T2 sequence (Q9H9A5 25-707): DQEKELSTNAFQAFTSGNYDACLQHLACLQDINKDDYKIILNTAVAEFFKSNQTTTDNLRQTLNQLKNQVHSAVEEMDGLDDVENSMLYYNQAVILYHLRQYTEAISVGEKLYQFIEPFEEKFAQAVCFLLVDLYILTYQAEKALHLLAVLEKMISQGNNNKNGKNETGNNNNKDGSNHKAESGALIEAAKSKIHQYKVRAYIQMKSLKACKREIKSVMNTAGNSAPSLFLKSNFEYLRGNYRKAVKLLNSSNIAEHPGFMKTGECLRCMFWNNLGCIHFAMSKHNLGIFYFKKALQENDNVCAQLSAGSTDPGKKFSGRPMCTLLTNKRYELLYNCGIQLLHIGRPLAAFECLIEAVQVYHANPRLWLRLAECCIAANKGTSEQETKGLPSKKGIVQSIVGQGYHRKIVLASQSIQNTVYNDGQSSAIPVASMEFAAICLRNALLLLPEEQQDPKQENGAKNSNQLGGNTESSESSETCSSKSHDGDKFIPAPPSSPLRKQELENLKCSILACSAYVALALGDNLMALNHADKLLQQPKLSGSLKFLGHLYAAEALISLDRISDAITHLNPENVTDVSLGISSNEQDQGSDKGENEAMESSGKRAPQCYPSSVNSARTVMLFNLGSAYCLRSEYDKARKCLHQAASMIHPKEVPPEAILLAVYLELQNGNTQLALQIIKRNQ

[3] = biological target: T3, NOT10:GST-NOT11 complex (Hs NOT10-L with GST-NOT11-C) (human, UniProt Q9H9A5 25-707; Q9UKZ1 257-498); assay: pull-down; purified proteins; GST-NOT11-C alone or the NOT10:GST-NOT11 complex as bait, NOT1-N as prey (Fig. 3g)
T3 construct: human NOT10 (CNOT10), NOT10-L, residues D25–Q707, from pnYC-vM with a TEV-cleavable MBP tag; human NOT11 (CNOT11), NOT11-C, residues D257–D498; also called NOT10:NOT11 heterodimer; source: E. coli BL21 (DE3) Star, co-expressed, purified (glutathione agarose, TEV cleavage of MBP, HiTrap Heparin, Superdex 200); not shown: MBP, N-terminal, cleaved; GST, N-terminal, kept
T3 sequence (Q9H9A5 25-707, chain 1 of 2, other chains not shown): as the sequence (Q9H9A5 25-707) above

Binder | binding result [1] | binding result [2] | binding result [3]
B1 | binds | binds | 
B2 |  |  | binds
